This assay addresses Human CR2 SCR1-4-BCCP, site-specifically biotinylated (human) (UniProt P20023). Nature of the assay: SPR.

Sequence of 70 kDa fragment of the Epstein-Barr virus gp350/220 coat protein (P03200 whole entry, the tested form may be a part): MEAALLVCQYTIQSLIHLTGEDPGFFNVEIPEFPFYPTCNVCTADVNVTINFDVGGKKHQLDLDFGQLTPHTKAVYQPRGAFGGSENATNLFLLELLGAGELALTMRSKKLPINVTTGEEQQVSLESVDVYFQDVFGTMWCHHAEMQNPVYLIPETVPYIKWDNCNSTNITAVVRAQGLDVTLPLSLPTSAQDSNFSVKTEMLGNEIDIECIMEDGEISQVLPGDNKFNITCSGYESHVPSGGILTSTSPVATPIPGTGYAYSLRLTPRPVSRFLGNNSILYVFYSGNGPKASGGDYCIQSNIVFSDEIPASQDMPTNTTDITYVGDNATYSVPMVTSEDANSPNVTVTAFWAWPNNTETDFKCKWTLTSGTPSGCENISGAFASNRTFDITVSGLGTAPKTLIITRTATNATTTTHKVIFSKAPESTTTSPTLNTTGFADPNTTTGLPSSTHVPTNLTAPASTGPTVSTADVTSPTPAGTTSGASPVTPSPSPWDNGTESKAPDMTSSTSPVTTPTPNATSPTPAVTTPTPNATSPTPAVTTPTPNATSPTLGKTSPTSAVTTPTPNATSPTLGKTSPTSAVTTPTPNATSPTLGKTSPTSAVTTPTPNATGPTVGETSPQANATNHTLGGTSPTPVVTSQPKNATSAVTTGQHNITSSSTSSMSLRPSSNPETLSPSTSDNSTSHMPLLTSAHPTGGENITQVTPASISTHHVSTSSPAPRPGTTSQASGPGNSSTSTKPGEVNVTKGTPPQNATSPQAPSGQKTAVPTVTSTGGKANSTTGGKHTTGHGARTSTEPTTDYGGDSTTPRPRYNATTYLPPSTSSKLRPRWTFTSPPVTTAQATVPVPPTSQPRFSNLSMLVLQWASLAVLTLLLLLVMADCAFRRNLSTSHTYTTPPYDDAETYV
Sequence of Human CR2 SCR1-4-BCCP, site-specifically biotinylated (human) (P20023 21-273): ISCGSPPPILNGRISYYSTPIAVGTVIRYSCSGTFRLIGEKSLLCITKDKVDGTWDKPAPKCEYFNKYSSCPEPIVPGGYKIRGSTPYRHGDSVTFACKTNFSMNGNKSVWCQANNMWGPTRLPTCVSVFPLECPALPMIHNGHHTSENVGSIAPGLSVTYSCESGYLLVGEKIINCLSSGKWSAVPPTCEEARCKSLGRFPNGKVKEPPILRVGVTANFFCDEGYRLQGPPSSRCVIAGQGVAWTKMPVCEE

Substance “70 kDa fragment of the Epstein-Barr virus gp350/220 coat protein (from UniProt P03200-1 1-907) (domain or fragment)” returned a KD1 (higher affinity site, two-site model) of 0.417 µM.

Source of the values: article PMC3439536.
